Patent publication US20160361384A1, “COSMETIC USE OF DERMICIDIN, OR ANALOGUES OR FRAGMENTS THEREOF, FOR THE PREVENTION AND/OR TREATMENT AND DIAGNOSIS OF OILY SKIN AND AESTHETIC SKIN DISORDERS ASSOCIATED THEREWITH” (L'OREAL, priority 2013, published 2016)
Ends that are not written are not given here.

B1: Lacritin: antimicrobial peptide Lacritin, synthesized by hybrogenics Ref: Hgx 2238v1 (peptide, UniProt Q9GZZ8 20-138, looked up)
Extracellular glycoprotein …: EDASSDSTGADPAQEAGTSKPNEEISGPAEPASPPETTTTAQETSAAAVQGTAKVTSSRQELNPLKSIVEKSILLTEQALAKAGKGMHGGVPGGKQFIENGSEFAQKLLKKFSLLKPWA
B2: Recombinant human S100A7: recombinant human S100A7, Interchim (Protera), folding verified by NMR, batch EN00510-23/24/25 (protein, UniProt P31151 2-101, looked up)
Protein S100-A7: SNTQAERSIIGMIDMFHKYTRRDDKIEKPSLLTMMKENFPNFLSACDKKGTNYLADVFEKKDKNEDKKIDFSEFLSLLGDIATDYHKQSHGAAPCSGGSQ
B3: RNASE 7: antimicrobial peptide RNASE 7, Human Plv extraction (heel horn) (protein, UniProt Q9H1E1 29-156, looked up)
Ribonuclease 7: KPKGMTSSQWFKIQHMQPSPQACNSAMKNINKHTKRCKDLNTFLHEPFSSVAATCQTPKIACKNGDKNCHQSHGAVSLTMCKLTSGKHPNCRYKEKRQNKSYVVACKPPQKKDSQQFHLVPVHLDRVL

Test system: P. acnes ATCC 6919
Format: cell-based, Propionibacterium acnes
Conditions: for MIC in μg/ml P. acnes: P. acnes ATCC 6919, 48 h incubation, optical density at 620 nm, concentration range 5 to 100 μg/ml, triplicate
Procedure: A micromethod was developed in a microplate.
The test principle is based on bringing decreasing concentrations of antimicrobial peptide (DCD-1L) into contact with an identical inoculum of P. acnes in a culture medium conducive to the growth of P. acnes. After incubation of the microplate for 48 h with the P. acnes strain, the optical density of the sample (620 nm) is measured and the results are expressed as percentage growth calculated relative to a growth control without antimicrobial peptide (negative control).
In addition, the inoculum is also brought into contact with triclosan in order to have a positive control.
The minimum inhibitory concentration or MIC is the lowest concentration of antibiotic that is sufficient to inhibit, in the laboratory, i.e. in vitro, the growth of a bacterial strain (bacterial colony).
The concentration range chosen ranged from 5 to 100 μg/ml.
Each concentration was tested in triplicate.
The inhibitory activity of the peptides was evaluated on the following microorganism: • P. acnes ATCC 6919 (Gram+bacterium)

Row | Molecule | MIC in μg/ml P. acnes | growth of P. acnes (in the presence of a low concentration of the peptide)
1 | SSLLEKGLDGAKKAVGGLGKLGKDAVEDLESVGKGAVHDVKDVLDSVL [Dermcidin (DCD1L)] | <5 µg/mL | greatly inhibited
2 | B1 | 100 µg/mL | 
3 | B2 | >100 µg/mL | 
4 | B3 | >100 µg/mL | 
